Kd data for one molecule are collected here from publication PMC10329719 (2023).

Primed or numbered codes have the meaning given here. Where no end group is shown, it is not given here. FITC′ = not defined here

Common to all, as to assay: ELISA-like fluorescence binding assay
Assay [1] concerns the target T1, TβR3 (Homo sapiens, UniProt Q03167).
T1 chain: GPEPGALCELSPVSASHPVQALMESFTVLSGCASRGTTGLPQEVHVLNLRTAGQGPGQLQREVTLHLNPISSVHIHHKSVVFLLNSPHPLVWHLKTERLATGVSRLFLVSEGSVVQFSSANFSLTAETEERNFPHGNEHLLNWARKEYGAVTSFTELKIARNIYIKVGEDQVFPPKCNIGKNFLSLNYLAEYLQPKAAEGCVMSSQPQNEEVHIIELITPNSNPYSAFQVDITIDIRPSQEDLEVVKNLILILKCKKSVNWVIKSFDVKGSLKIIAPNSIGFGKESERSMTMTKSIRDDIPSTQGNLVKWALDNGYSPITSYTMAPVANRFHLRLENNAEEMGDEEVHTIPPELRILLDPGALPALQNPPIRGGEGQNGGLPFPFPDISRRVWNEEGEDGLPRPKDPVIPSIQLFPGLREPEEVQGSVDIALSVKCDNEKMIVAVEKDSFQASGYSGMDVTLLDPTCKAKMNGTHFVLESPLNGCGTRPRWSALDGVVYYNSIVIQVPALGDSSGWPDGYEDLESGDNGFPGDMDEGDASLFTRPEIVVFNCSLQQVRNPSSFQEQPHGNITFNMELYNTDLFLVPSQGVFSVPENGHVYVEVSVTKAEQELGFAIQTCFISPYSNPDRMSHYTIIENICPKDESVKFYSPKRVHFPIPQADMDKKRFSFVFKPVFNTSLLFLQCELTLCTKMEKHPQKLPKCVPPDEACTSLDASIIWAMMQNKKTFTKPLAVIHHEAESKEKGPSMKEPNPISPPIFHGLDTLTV

Assay [2] has as its target TβR2 (Homo sapiens, UniProt P37173).
Assay [3] addresses T2, TβR1 (Homo sapiens, UniProt P36897).
T2 chain: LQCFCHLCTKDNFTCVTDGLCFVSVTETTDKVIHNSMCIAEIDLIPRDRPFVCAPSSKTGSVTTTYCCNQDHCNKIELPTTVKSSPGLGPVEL

Chain of TβR2 (P37173 23-166): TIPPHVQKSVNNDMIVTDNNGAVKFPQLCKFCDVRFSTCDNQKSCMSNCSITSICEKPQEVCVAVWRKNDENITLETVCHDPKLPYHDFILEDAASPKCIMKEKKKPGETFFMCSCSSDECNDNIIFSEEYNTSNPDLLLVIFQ

Take ECGLLPVGRPDRVWRLCK-{FITC′} (cysteine pairing not given here) [PTβR2I]: the Kd in assay [1] was more than 34 µM; in assay [2], 3.4 µM; in assay [3] it was more than 34 µM.

One may read the Kd as the free concentration of one partner at which half of the binding sites on the other are occupied at equilibrium, for simple one-to-one binding.
